Article PMC10838314, “Exploring TRF2-Dependent DNA Distortion Through Single-DNA Manipulation Studies”

What was measured:
Conditions in all cases: protein: recombinant, tags: N-terminal His6 removed by TEV, chain copies: 2, label: 5' biotin and 3' thiol via ligated handles, 52 bp stem, 8 nt loop
[1] = target: TRF2 45-500 (deltaB-TRF2) (Homo sapiens, UniProt Q15554 87-542, del43-86); experiment: single-molecule magnetic tweezers hairpin unzipping; Hill n=1.0±0.2; Magnetic tweezers: 150 mM KCl (stretching; full buffer, pH and temperature not in material). EMSA: 25 mM HEPES-Na pH 7.5, 50 mM NaCl, 4 C, 30 min
hTRF2 full-length [2] = target: T1, hTRF2 full-length (Homo sapiens, UniProt Q15554 43-542); experiment: single-molecule magnetic tweezers hairpin unzipping; Hill n=1.0±0.3; Fb 7 pN; Magnetic tweezers: 150 mM KCl (stretching; full buffer, pH and temperature not in material). EMSA: 25 mM HEPES-Na pH 7.5, 50 mM NaCl, 4 C, 30 min
TRFH (TRF2 42-245) = TRFH (TRF2 42-245) (Homo sapiens, UniProt Q15554 84-287); experiment: single-molecule magnetic tweezers hairpin unzipping; no unzipping delay up to 5 uM; very dynamic binding not excluded; Magnetic tweezers: 150 mM KCl (stretching; full buffer, pH and temperature not in material). EMSA: 25 mM HEPES-Na pH 7.5, 50 mM NaCl, 4 C, 30 min
hTRF2 full-length [3] = target: T1, hTRF2 full-length; experiment: single-molecule magnetic tweezers hairpin unzipping; Hill n=1.2±1.7; Magnetic tweezers: 150 mM KCl (stretching; full buffer, pH and temperature not in material). EMSA: 25 mM HEPES-Na pH 7.5, 50 mM NaCl, 4 C, 30 min

T1 sequence (Q15554 43-542): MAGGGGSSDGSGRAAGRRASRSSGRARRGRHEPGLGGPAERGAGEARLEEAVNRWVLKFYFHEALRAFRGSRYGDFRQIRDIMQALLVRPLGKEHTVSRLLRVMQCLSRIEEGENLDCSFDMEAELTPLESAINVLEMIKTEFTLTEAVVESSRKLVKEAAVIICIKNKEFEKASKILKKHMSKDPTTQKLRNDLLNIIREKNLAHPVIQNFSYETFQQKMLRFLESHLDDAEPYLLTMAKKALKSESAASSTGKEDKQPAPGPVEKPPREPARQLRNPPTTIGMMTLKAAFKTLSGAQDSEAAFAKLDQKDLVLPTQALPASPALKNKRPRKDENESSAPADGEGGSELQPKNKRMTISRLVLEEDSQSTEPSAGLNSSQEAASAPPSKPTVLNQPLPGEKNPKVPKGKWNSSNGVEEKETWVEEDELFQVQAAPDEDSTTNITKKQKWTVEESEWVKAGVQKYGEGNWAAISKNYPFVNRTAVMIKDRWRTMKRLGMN
Chain of TRFH (TRF2 42-245) (Q15554 84-287): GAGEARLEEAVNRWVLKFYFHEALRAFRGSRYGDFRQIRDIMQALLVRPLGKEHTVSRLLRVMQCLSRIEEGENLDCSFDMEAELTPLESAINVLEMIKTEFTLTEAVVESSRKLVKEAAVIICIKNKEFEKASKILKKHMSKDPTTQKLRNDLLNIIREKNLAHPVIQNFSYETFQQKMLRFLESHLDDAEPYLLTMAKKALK
Chain of TRF2 45-500 (deltaB-TRF2) (Q15554 87-542, stated change not applied): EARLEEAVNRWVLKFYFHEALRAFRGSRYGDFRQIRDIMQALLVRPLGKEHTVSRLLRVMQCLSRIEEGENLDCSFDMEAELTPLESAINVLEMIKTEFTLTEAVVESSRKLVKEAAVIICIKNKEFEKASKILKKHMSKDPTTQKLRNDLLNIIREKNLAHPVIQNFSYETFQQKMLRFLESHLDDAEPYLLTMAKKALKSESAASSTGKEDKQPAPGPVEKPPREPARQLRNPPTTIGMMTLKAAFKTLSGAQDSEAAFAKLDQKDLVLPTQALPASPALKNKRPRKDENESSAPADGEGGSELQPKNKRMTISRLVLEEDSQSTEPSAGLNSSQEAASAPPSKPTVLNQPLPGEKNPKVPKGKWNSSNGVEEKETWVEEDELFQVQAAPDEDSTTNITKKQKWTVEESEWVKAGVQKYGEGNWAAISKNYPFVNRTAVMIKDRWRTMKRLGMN

B1: 5-repeat telomeric hairpin (structured_DNA)
DNA: CTTGTGCACAGACTCGTTTGGTTATCGAAGGTTAGGGTTAGGGTTAGGGTTAGGGTTAGGGTGCTACCAGGAAAAAAAACCTGGTAGCACCCTAACCCTAACCCTAACCCTAACCCTAACCTTCGATAACCTTTGCAGCCAGGTCAGTAGCGAC
modifications: 5' phosphate
- Kd [1]: 0.284 ± 0.0705 µM
- Kd (hTRF2 full-length [2]): 0.0103 ± 0.0029 µM
- binding result (TRFH (TRF2 42-245)): no binding

B2: non-telomeric hairpin (structured_DNA)
DNA: CTTGTGCACAGACTCGTTTGGTTATCGAAGGTAAGGTCTGGCGAACGGTGTATTACCGGTTTGCTACCAGGAAAAAAAACCTGGTAGCAAACCGGTAATACACCGTTCGCCAGACCTTACCTTCGATAACCTTTGCAGCCAGGTCAGTAGCGAC
modifications: 5' phosphate
- Kd (hTRF2 full-length [3]): 0.0768 ± 0.0317 µM
